Earlier results, collected in publication PMC7680388.

Target: Ubiquitin (Homo sapiens) (UniProt P0CG48)

Chain of Rpn13 (Q16186 2-407): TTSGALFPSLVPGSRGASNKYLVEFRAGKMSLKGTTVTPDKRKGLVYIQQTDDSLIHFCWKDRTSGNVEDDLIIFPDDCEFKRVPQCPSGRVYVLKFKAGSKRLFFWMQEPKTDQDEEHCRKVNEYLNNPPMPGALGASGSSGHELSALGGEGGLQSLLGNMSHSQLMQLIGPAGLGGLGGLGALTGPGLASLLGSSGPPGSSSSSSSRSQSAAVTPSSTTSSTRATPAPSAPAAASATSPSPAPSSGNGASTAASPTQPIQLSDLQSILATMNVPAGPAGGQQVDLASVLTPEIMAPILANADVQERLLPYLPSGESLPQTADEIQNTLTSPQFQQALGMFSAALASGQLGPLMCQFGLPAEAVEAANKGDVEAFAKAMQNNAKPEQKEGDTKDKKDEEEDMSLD

Kd: 40 µM
Substance: Rpn13 (from UniProt Q16186)
